The values below are quoted from earlier work in article PMC4569521.

Usually Kd stands for the constant that tells how readily two partners part at equilibrium.

Bounds are passed on as bounds.

Series [1] concerns the target MuA recognition peptides (Escherichia phage Mu) (UniProt P07636).
In series [2] the target is MuA tetramer (Escherichia phage Mu) (UniProt P07636).
Sequence of MuA tetramer (Escherichia phage Mu) (P07636 whole entry): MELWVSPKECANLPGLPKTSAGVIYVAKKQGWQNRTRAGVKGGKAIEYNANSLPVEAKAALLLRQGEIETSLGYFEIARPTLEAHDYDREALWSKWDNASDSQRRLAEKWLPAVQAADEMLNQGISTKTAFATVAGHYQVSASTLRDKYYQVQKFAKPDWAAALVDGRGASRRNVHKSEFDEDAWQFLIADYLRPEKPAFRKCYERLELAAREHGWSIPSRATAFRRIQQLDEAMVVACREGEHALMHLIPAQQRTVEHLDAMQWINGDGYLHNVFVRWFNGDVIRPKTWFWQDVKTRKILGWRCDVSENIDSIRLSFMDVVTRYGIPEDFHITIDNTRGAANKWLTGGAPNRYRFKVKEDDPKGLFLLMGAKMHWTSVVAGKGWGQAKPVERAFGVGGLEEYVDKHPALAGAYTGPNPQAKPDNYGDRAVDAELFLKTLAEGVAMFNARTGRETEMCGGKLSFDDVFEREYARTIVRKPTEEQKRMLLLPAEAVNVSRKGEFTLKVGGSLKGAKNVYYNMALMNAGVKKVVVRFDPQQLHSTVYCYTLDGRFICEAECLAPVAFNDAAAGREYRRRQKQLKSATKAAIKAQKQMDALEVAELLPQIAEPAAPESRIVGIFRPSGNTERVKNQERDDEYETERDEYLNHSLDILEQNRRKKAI

Sequence of ClpX (P0A6H1 2-424): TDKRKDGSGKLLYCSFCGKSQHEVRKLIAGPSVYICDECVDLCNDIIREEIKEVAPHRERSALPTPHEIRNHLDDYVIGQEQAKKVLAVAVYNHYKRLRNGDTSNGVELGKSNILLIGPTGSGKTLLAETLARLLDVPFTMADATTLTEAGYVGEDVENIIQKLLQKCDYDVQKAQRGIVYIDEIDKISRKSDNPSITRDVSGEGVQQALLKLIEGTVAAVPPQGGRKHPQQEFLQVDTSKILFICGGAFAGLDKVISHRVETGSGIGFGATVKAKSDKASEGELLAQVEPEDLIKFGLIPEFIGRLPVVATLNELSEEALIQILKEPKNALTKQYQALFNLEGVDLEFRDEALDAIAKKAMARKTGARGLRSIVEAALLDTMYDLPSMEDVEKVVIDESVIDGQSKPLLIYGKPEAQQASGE
Sequence of MuA recognition peptides (Escherichia phage Mu) (P07636 whole entry, looked up): as the sequence (P07636 whole entry) above

For the substance ClpX (from UniProt P0A6H1), the Kd in series [1] is greater than 70000 nM; in series [2] it was 1000 nM.
